Data as given in patent publication US20160091498A1 (H LEE MOFFITT CANCER CENTER AND RESEARCH INSTITUTE, published 2016).
Primed or numbered codes have the meaning given here. No end group written: not given here. Biotin′ = not defined here

Target: T1, NPAT (UniProt Q14207 1-1427)
T1 construct: other lysate proteins were present
T1 sequence (looked up): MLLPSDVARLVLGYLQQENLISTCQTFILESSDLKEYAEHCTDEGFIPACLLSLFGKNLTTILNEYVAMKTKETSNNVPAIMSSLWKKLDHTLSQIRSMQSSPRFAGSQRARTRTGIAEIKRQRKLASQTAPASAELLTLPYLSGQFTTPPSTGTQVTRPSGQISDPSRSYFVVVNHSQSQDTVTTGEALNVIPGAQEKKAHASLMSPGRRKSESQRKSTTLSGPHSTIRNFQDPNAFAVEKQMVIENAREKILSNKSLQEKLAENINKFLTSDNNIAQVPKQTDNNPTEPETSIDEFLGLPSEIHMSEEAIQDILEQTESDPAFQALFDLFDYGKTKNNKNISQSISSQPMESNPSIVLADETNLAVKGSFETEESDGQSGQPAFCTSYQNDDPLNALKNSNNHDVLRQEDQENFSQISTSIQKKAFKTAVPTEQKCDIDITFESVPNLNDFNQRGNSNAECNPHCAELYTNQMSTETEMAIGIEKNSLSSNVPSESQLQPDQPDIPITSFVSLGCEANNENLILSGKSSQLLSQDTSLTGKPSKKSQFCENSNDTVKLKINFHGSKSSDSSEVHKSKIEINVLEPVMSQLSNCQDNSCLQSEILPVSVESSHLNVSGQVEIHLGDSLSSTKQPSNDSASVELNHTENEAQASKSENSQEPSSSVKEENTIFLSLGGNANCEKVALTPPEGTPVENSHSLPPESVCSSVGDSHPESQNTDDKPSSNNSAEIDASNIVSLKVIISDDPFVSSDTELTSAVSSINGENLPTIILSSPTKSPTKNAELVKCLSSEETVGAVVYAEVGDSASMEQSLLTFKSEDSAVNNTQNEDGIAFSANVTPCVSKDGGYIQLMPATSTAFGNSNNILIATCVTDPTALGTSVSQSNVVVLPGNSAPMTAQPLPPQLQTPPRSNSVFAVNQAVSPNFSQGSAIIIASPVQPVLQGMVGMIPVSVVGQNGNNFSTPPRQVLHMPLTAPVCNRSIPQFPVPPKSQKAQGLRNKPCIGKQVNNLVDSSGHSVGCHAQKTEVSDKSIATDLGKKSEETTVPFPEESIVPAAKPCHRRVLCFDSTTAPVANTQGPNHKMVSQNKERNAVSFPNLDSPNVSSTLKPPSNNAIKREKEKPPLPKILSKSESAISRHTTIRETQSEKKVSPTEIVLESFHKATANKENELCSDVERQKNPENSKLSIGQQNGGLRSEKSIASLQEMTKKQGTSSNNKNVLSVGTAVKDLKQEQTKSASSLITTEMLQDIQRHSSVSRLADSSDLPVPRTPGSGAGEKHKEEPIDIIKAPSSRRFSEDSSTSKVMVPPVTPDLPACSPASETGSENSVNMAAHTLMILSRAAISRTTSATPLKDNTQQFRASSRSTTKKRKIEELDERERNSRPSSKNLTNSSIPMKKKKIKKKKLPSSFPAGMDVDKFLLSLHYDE
Assay: filter binding: peptide on nitrocellulose, HEK293 lysate, NPAT immunoblot

B1: H2B(25-49) (peptide)
peptide: DGKKRKRSRKESYSVYVYKVLKQVH-{Biotin′}
notes: also called unphosphorylated H2B; human histone H2B peptide spanning amino acids 25-49
binding result: binds
